Blank lines part the entries; values can stand above or below the compound they belong to.
Columns and labels:
BR = molecular target: T1, BR (Halobacterium salinarum, UniProt P02945); assay: HPLC of chromophore extracted from purified protein; type: binding; details: covalent; Schiff base to Lys216; dark- and light-adapted; 0.05% DDM, 10 mM HEPES, pH 7.5
T1 construct: gene bop; native BR from Hs by sucrose density gradient; text also mentions Ni-NTA purification and a vector-cloned BR from E. coli
T1 sequence (P02945 14-262): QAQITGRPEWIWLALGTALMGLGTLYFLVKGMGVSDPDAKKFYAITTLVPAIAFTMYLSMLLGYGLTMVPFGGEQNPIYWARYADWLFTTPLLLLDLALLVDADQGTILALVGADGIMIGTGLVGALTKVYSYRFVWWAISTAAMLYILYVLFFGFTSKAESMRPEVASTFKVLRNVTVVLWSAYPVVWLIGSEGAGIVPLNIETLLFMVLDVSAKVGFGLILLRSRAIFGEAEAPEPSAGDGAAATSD

[1] = molecular target: Bacteriorhodopsin (Halobacterium salinarum) (UniProt P02945); assay: SEC; Superdex 200 10/300 GL, 25 °C, 10 mM HEPES pH 7.5, 100 mM NaCl, 0.05% DDM, 0.5 mL/min, detection at 280 and 560 nm; apparent mass from calibration standards, trimer deduced after allowing for bound DDM
[2] = molecular target: Halorubrum sp. Ejinoor Archaerhodopsin (Halorubrum sp. Ejinoor); assay: as above
Asp85 = Asp85 (UniProt position 98, WARYADWLFTT); details: cited from earlier work
Asp95 = Asp95 (UniProt position 95, YARYADWLFTT); assay: UV-vis; details: not stated (six-component buffer said to keep ionic strength constant); citric acid/MES/HEPES/MOPS/CHES/CAPS, each 10 mM; retinal-bound, detergent-solubilised trimer; steady-state titration; light or dark adaptation state not stated

Compound: CC1=C(/C=C/C(C)=C/C=C/C(C)=C/C=O)C(C)(C)CCC1 [All-trans retinal]
HPLC of chromophore extracted from purified protein (BR): both HeAR and BR contain only two retinal chromophore isomers: All-trans and 13-cis

stoichiometry N [1]: 3
Compound: Bacteriorhodopsin (from UniProt P02945 14-262) (natural protein)

Compound: CC1=C(/C=C/C(C)=C/C=C/C(C)=C\C=O)C(C)(C)CCC1 [13-cis retinal]
HPLC of chromophore extracted from purified protein (BR): both HeAR and BR contain only two retinal chromophore isomers: All-trans and 13-cis

stoichiometry N [2]: 3
Compound: Halorubrum sp. Ejinoor Archaerhodopsin (natural protein)

Compound: Bacteriorhodopsin (BR) (Halobacterium salinarum)
pKa (Asp85): ~2.6

Compound: Archaerhodopsin HeAR (Halorubrum sp. Ejinoor)
pKa (Asp95): 3.5 ± 0.1

Reference: PMC12025097, “Elucidation of Expression Patterns and Functional Properties of Archaerhodopsin Derived from Halorubrum sp. Ejinoor” (Biology, 2025)
